This is an account of results in a protein production outcome set (Wang et al. 2014).

The series can be described thus: label from the status in PepcDB records.

Consider “MAASVANCCFSVLNASVKIQSSSISSPWCFVSASSLTPRASSNIKRKSSRSDSPSPILNPEKNYPGRVRDESSNPPQKMAFKAFGSPKKEKKESLSDFSRDQQTDPAKIHDASFLNAVVKVSKSNSLSSLKFTLLAFEPTRASFQVYCTHTAPDYSLPWQKQRQFTSTGSAFMIGDGKLLTNAHCVEHDTQVKVKRRGDDRKYVAKVLVRGVDCDIALLSVESEDFWKGAEPLRLGHLPRLQDSVTVVGYPLGGDTISVTKGVVSRIEVTSYAHGSSDLLGIQIDAAINPGNSGGPAFNDQGECIGVAFQVYRSEETENIGYVIPTTVVSHFLTDYERNGKYTGYPCLGVLLQKLENPALRECLKVPTNEGVLVRRVEPTSDASKVLKEGDVIVSFDDLHVGCEGTVPFRSSERIAFRYLISQKFAGDIAEIGIIRAGEHKKVQVVLRPRVHLVPYHIDGGQPSYIIVAGLVFTPLSEPLIEEECEDTIGLKLLTKARYSVARFRGEQIVILSQVLANEVNIGYEDMNNQQVLKFNGIPIRNIHHLAHLIDMCKDKYLVFEFEDNYVAVLEREASNSASLCILKDYGIPSERSADLLEPYVDPIDDTQALDQGIGDSPVSNLEIGFDGLVWA”, for which the protein production result is given as “failed”.

“MAATTNFTKSMLFPFSHVSGNASLNSQRRTWPKQYKSKNGYRSLRVNGLFGGGNKDNNSEDGQSKAGIFGNMQNMYETVKKAQMVVQVEAVRVQKELAAAEFDGYCAGELVKVTLSGNQQPIRTDITEAAMELGSEKLSQLVTEAYKDAHAKSVVAMKERMSDLAQSLGMPPGLSEGMK”: the protein production entry was “failed”.

As for “MAAVGSGGYARNDAGEKLPSVMAGVPARRGQSSPPPAPPICLRRRTRLSTASEETVQNRVSLEKVLGITAQNSSGLTCDPGTGHVAYLAGCVVVILDPKENKQQHIFNTARKSLSALAFSPDGKYIVTGENGHRPAVRIWDVEEKNQVAEMLGHKYGVACVAFSPNMKHIVSMGYQHDMVLNVWDWKKDIVVASNKVSCRVIALSFSEDSSYFVTVGNRHVRFWFLEVSTETKVTSTVPLVGRSGILGELHNNIFCGVACGRGRMAGSTFCVSYSGLLCQFNEKRVLEKWINLKVSLSSCLCVSQELIFCGCTDGIVRIFQAHSLHYLANLPKPHYLGVDVAQGLEPSFLFHRKAEAVYPDTVALTFDPIHQWLSCVYKDHSIYIWDVKDINRVGKVWSELFHSSYVWNVEVYPEFEDQRACLPSGSFLTCSSDNTIRFWNLDSSPDSHWQKNIFSNLAPALQMCGRGHSRQPNTPSPGEIAS”, the protein production entry is recorded as “failed”. Next, “MAAVILESIFLKRSQQKKKTSPLNFKKRLFLLTVHKLSYYEYDFERGRRGSKKGSIDVEKITCVETVVPEKNPPPERQIPRRGEESSEMEQISIIERFPYPFQVVYDEGPLYVFSPTEELRKRWIHQLKNVIRYNSDLVQKYHPCFWIDGQYLCCSQTAKNAMGCQILENRNGSLKPGSSHRKTKKPLPPTPEEDQILKKPLPPEPAAAPVSTSELKKVVALYDYMPMNANDLQLRKGDEYFILEESNLPWWRARDKNGQEGYIPSNYVTEAEDSIEMYEWYSKHMTRSQAEQLLKQEGKEGGFIVRDSSKAGKYTVSVFAKSTGDPQGVIRHYVVCSTPQSQYYLAEKHLFSTIPELINYHQHNSAGLISRLKYPVSQQNKNAPSTAGLGYGSWEIDPKDLTFLKELGTGQFGVVKYGKWRGQYDVAIKMIKEGSMSEDEFIEEAKVMMNLSHEKLVQLYGVCTKQRPIFIITEYMANGCLLNYLREMRHRFQTQQLLEMCKDVCEAMEYLESKQFLHRDLAARNCLVNDQGVVKVSDFGLSRYVLDDEYTSSVGSKFPVRWSPPEVLMYSKFSSKSDIWAFGVLMWEIYSLGKMPYERFTNSETAEHIAQGLRLYRPHLASEKVYTIMYSCWHEKADERPTFKILLSNILDVMDEES”: “not failed”; “MACFSSLSTGVLDMYDLIIVGGGPSGASAGRVAGKAGISTLLIEKENFPRYKPCGGALSPYALSCLDFKLPEYLIEKDISRIRVHFRELCTEMQKDYSIALLVSRKAFDNFLLDKARETGIDIHSGEKVLDCEEGEECVEVRTSQNTYLAKFVLIAEGSEGVLKYSVRKRKDRRTEYDLALVSEIPERDKVIRKRFPNAIDMHFGIASGGYGWIFPHSEHYSVGIVGTAEHLKHPKAVMQDFLQANGFSGDFQVHSHIIPVGGIKRKTISSRILLSGDAAGFVDAFIGEGISYAIRSGQLAAENVAEIVLYNRKLSDLKEYETSCRKEFGNFLSSSLKLEKAMHRFPETSFRLALSRKEIIDKYLEEVVINRSHKDYVRWLLLNFSLSEPASKIKSIKDKNQLEHHHHHH”: “failed”; “MACHGFLGKPTPKSFGRHHKHARKNRNHQSRCLAAAVAAAGSIFTSLNMSIFTFHNRLLRCVSRFLRLATTSSATPTRRPTMKQGYKKLHKREPLIRRNDKKRTIFLDLDETLVHSTMEPPIRVNVDFMVRIKIEGAVIPMFVVKRPGVTEFLERISKNYRVAIFTAGLPEYASQVLDKLDKNRVISQRLYRDSCTEVNGRYAKDLSLVAKNDLGSVLLVDDNPFSYSLQPDNGVPIKPFMDDMEDQELMKLAEFFDGCYQYEDLRDAAAELLSSKLI”: “failed”. Next, “MADAPDTERQAVEPEAGDVLSVSQLNDRIASVVEDAPALDGVRCIGEVTDLHQNSTALYFTLTDGDAELPCMIWANRYRKMDAELEDGTEVILEGDIDYWTEGGKIDLKPWEVIVVGDGDQAAAVERLRSELEERGWFDDEQKQRPPAFPERVGVVTSLRGDARYDIQSAIHEQDPTVDILVKDATVQGSEAPTSIANGIHHLDRSEDVDSIIVGRGGGSDSNLQAFNTERVAEAIFTANTPIVTAIGHTDDRLIADRVADMAAITPTAAGEYIAKSRNDFLASDIGPLEQQLEAAYETFEQEHEHEQELAEAVEEATAPEGLSPVYYKVAIVVLLVLLLLITALWLGVI”: “failed”; “MADAPIDIFQSILSRKSIRAFTDQPVTQETIREILKLAARAPSGTNLQPWQVIVLTGKILQKVGQELSQLVLSGIKGEREYHYYPRQWREPYLSRRRKVGLDLYKSLGIQKGDQEKMLHQKAKNFLFYGAPVGLLFTIDHDMEMGSWLDLGMFMQTIMLAARGFGLDTCAQAAFADYHKQIRSLLSVPSDRHIICGMALGYRDMNAPENNFETEREPIDNFVHFIKSYP”: “not failed”. To “MADISLDELIRKRGAAAKGRLNARPGVGGVRSRVGIQQGLLSQSTRTATFQQRFDARQKIGLSDARLKLGVKDAREKLLQKDARFRIKGKVQDAREMLNSRKQQTTVPQKPRQVADAREKISLKRSSPAAFINPPIGTVTPALKLTKTIQNLYDLDEDDDGIASVPTKQMKFAASGGFLHHMAGLSSSKLSMSKALPLTKVVQNDAYTAPALPSSIRTKALPVLTSPGT” belongs “not failed”; to “MADLPSISLITATYNAAQHLPGLIESVRQQSDRAFEWIVIDGASEDGTLDLIRGAQDVITDYVSEPDFGIFHALNKGIQRATGDYYLVVGADDRLDPLAIANYKQAAASSQADLISAYIYSEKKAIIKPTGGAIWHHGVQAFITTQSVGTLIKRNLHEHYGYYSHYYPTAADALFILKVQQGGGKITTAEFIAGQYNTKGFSYRYKANLLCELFLIQKEFFPKSIQLLLLIYRLIKNYRYLLEHHHHHH”, “failed”; to “MADMSDAPLVVQSDRTILLEVDNPLYPEARDALARFAELVKSPEHIHTYRLTPLSLWNAAAGGLDAATIIQVLADYSKYPLPANVVADIREYVGRYGKVKLVARGTGLRLVTADPGIAAEISNNKRIQPYIKERQDACTLAIDPWQRGPVKQALIKIGYPVEDLAGYIPGAPLPFSLRERTLNGETFSLRPYQAEAARVFYAGGSSRGGSGVIVLPCGAGKTVVGIAAMALCQCYTLILVTSVTAARQWLAEIRDKTDLPPEMLGEYTGEKKEIKPVTVATYQIITHRRRRNEDYPNFQLFNQQDWGLIIYDEVHLLPAPIFRITAELQARRRLGLTATLIREDGHEDDVFSLIGPKKYDLPWKQLEAQGWIAKATCYEVRLNLPPEMRLDYASAGERDKYRIAATNPVKEAVVENIIKRHEGEQVLVIGQYLEQLERLARRLGVPMITGQTSNRERERLYQAFREGTLKCLVVSKVANFAIDLPEASVAVQVSGAFGSRQEEAQRLGRILRPKKGGLPASFYTLVTRETVEQEFAVHRQLFLTEQGYRYVIIGPDLEQEGDKVYPLKTPTGSEPAVGAVIKQENLDGKVIDLMAWRQKAGR”, “failed”. Take “MADNYVIWFENLRMTDVERVGGKNASLGEMISQLTEKGVRVPGGFATTAEAYRAFLAHNGLSERISAALAKLDVEDVAELARVGKEIRQWILDTPFPEQLDAEIEAAWNKMVADAGGADISVAVRSSATAEDLPDASFAGQQETFLNINGLDNVKEAMHHVFASLYNDRAISYRVHKGFEHDIVALSAGVQRMVRSDSGASGVMFTLDTESGYDQVVFVTSSYGLGENVVQGAVNPDEFYVFKPTLKAGKPAILRKTMGSKHIKMIFTDKAEAGKSVTNVDVPEEDRNRFSITDEEITELAHYALTIEKHYGRPMDIEWGRDGLDGKLYILQARPETVKSQEEGNRNLRRFAINGDKTVLCEGRAIGQKVGQGKVRLIKDASEMDSVEAGDVLVTDMTDPDWEPV”: the protein production entry was “not failed”. Next, “MADQPESPSRPRGGLRRLLPWSGADTARTATTVHTVINGERGGQGLAAHQLVPAKAKSGAHDPAAATALLIRLFSHAAHPEALLLAFAEGITSLHGELGDMGVRLSAAYAAGDWPGYGRALRQLIDKYIRTIDIGDSLAEGRTEAEQLRDLLRHALGNALATLLQRSPELAEEAQTLASALRHWRPGHELLTLEQRLRELSHQIGLRAEDASEQQNLLLGLFDLLLENVGELLDDRSWLQGQISVVRQLISGPLDVSSIEQARGTLREVIYKQGLLKQGIAESKTAMREMMVSFVDRLDGMATSTGEYHDRVAGYSQAIGEARGIPDLNRLLQDLLQDTAGVQAQALAARDELLSARRQVEDCEQRIASLEQELKDVAGLVREDQLTGALNRRGFEELFQREAVRTQRSGQPLCVAMLDLDDFRRLNETHGHAGGDAALRHTVDVAKAVLRTTDAIARFGGEEFVLLLPDSTIFEASAAVIRLQRALSQRSLLHDDVRVFISFSAGVALRGTDETQDDVIRRADRAMYDAKSAGKNRVINAD”: “failed”. Next, “MADSESKIYHERQRLQFCLLHCLNNLFQDKDAFTKESLNSIAEKLETNDPNKETWTPLSFVLKPHHNTITGNYDVNVMITALEGKGKSVVWHDKRIGASSIDLDDADTLMGIVLNVPVKRYGGLWRSRHWVVVRKINGVWYNLDSDLVVPQLFRDDDEVRGFLDQNLSLDVIGLIWNLPYNANQLPLASNYRVVITHWSDLNGMFSHVTNYPLDFDVYPQVSSKVSAIYKATGTKRFNANTRPVTPGKQSSVKGPYYKNPGCTTSCGLRLPRKTECTAARLIKDLSCKFVMGLRLVVMRKKKKKRSPPLKKASSSGISQPSVISVVNDNNHRSAAIEDCIQFINSSSSFTRSNSTCGSKS”: “failed”; “MAEAHVTKVGIVGIGFIGSDHLHRLTKTVANVDVTAVCDIVPGKAQKALDQQGLTATTYEDYHDLVNDPNVEVVVCTANNEAHYEIVMAALKAGKFTFCEKPLALDAKQCMDIIDSEKKLGRRMLQVGFMRHYAPEYVQMKKMIDDGVIGKPLMMDQRHYNQTQPEEYDSSRSIIETAIHEIDIDHWLVNDDYANIRVFSPKQTRHVQNAKIQDPQIVMIETKSGINIINEVFVRCQYGYDIKCDVIGEEGVLELPTVPQVATRLNAQYSTAILTDWKARFESAYDIEFRDFINHVSQNESPVGPSAWDGYIAAVTADAALKSLAEDGAKQDLDFPSTPAFYTESEKVSE”: “failed”.
